Here are results for two substances from publication PMC2636890.

Where only a bound is given, the exact number is not on record here.

For assay [1], the target named is soluble recombinant form of HCV E2 glycoprotein (sE2), derived from H77-E2, harbouring a His-tag (UniProt P27958). The assay can be described thus: flow cytometry on cells (sE2 binding). The following applies: BRL3A cells expressing only the indicated SR-BI mutant; sE2-containing medium vs. sE2-free medium; mean±SD, n = 3; parent: est. 100; read off a plot. (In general: In flow cytometry, cells or beads pass a laser one at a time.)

For assay [2], the target named is SR-BI-Short, a shorter isoform of SR-BI produced by alternative splicing that removes 100 amino acids of the ectodomain (human) (UniProt Q8WTV0).
UniProt Q8WTV0, sequence (Q8WTV0 other isoform, or with tags, fused parts or gaps): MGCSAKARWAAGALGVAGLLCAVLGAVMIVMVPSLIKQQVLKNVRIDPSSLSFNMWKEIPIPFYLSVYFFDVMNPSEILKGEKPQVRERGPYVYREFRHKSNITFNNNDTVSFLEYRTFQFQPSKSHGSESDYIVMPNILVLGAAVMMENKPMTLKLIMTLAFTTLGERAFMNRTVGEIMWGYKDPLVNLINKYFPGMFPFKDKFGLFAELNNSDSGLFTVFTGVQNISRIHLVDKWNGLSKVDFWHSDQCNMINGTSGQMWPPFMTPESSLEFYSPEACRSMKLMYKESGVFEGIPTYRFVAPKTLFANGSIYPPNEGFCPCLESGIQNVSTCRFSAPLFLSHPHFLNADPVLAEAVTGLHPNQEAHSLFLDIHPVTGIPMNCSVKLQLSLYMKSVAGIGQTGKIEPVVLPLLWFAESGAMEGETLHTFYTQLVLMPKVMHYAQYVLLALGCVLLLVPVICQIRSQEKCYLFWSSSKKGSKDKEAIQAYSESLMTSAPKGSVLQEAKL

Take “human scavenger receptor class B type I (SR-BI), wild type (from UniProt Q8WTV0-2) SES”: in assay [1], the percent of parent (% of wt SR-BI (set to 100)) was determined as 100.

As for “soluble recombinant form of HCV E2 glycoprotein (sE2), derived from H77-E2, harbouring a His-tag (from UniProt P27958 384-661) (domain or fragment)”, the entry of HCVpp (H77 E1E2) into BRL3A-CD81-CLDN1 cells expressing the SR-BI form, fold reduction against wt SR-BI in assay [2] was above 10 fold.
